Measured values published in the supplement of paper PMC9170038.

The sequences below were run on MS2 coat protein (assay: apparent KD of MS2 coat protein; higher = weaker reporter binding). Details: Eterna round: R107; input ligand: theophylline 20 uM.
Method in brief: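 Designed RNA switches were made by on-chip transcription from Illumina sequencing clusters and then titrated with SNAP-549-labelled MS2 coat protein. Twofold steps ran from 0.7 or 1.5 nM to 3 µM, each lasting 0.8–1.5 h early and 10–20 min late, in 100 mM Tris-HCl pH 7.5, 80 mM KCl, 4 mM MgCl2, without or with constant ligand. Apparent KD is the per-design median of normalised cluster binding-curve fits.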

**Q.** How did the “apparent KD of MS2 coat protein” value turn out when “AGAGUCAGACAAAAGUCUGGCUCAGCCGAAGGAGCGUCCGAAAGGACAGGUAGGUCGCGGUUACCUGAGGAUCACCCAGGUUCCU [ArgAS 24 #OpenEnded #AlternativeMS2]” was run?
**A.** Its value is 86.9 nM.

**Q.** Which “apparent KD of MS2 coat protein” value does the source give for “CACUAUGAGGUCGAUACCAGUACUGAGUUGUACAUGAGGAUCACCCAUGUAAAUGUUCGCUACCCUUGGCAGCGAUAACAUUGCA [theeternabot_sameState_MS2_Theo_B_34]” here?
**A.** Its value is 331 nM.

**Q.** Which “apparent KD of MS2 coat protein” value does the source give for “GCUGCCAUACGAAGGAGCGCUGGUGUAAUGAGGCGAACAUGAGGAUCACCCAUGUGGCAUAAGCAGGUAGGUCGCGUAUGGCAGC [EAB #16]” here?
**A.** Its value is 20.2 nM.

**Q.** How did the “apparent KD of MS2 coat protein” value turn out when “AAACAUGAGGAUCACCCAUGUAUACUUAGACGAGGACCGGUACGGCCGCCACUCGAACUUCAAGAUUUGGCGGAAAAUGUAUGUA [JR_ExcTryptoA_Sub022]” was run?
**A.** Its value is 13 nM.

**Q.** With “AAGCUGACAAGAAGGUGUUCCUAAGCUGAUACCAGCCUGGAAACAGGCCCUUGGCAGCAGCACAUGAGGAUCACCCAUGUAAUAA [(T)'-(M)'-(T1)-(T2)-(M1)-(M2)_Design2(Mismatches)]” as the sequence, how does the “apparent KD of MS2 coat protein” value read?
**A.** Its value is 172 nM.

**Q.** With “AAACGUUGCUGCGAUACCAGACAUGAGGAUCACCCAUGUACCAAGGUAACCGAAAGGCAUGUCCCUUGGCAGCGCAGCAACGAAA [MAT - Exclusion Theophlline B - Mod of Eli - D17]” as the sequence, how does the “apparent KD of MS2 coat protein” value read?
**A.** The value was 18.9 nM.

**Q.** “UAUAGUGUGAUGGAUACCAGCAGAGAAAACGUUUAUCCUAACAUGAGGAUCACCCAUGUAUGCCCUUGGCAGCUGUUGUGUUAUA [8.O]” was tested. Which “apparent KD of MS2 coat protein” value did it give?
**A.** The value was 42.5 nM.

**Q.** For “GAGUAGUAGACGGCCGCCACUAAACAUGAGGAUCACCCAUGUAGUGAUCCGUUACCUAGCGUAGAUAGGACCGGGUCAGAUAGUA [Exclusion Tryptophan B GF 14]”, which “apparent KD of MS2 coat protein” value is on record?
**A.** Its value is 31.7 nM.

**Q.** How did the “apparent KD of MS2 coat protein” value turn out when “GACGGUACGUCGGCAAAGCCGAUGUGCCAGCGAGGACCGGUACGGCCGCCACUCGUACAUGAGGAUCACCCAUGUCCGGUCCGUC [Omei Trp SS A C v3]” was run?
**A.** Its value is 108 nM.

**Q.** For “AAUAAUAGGUGAUCUUGAGUCGUACCGUAACGAGGACCGGUACGGCCGCCACUCGAACAUGAGGAUCACCCAUGUAUGUAUGAUA [whbob_SS_trypto A_f6]”, which “apparent KD of MS2 coat protein” value is on record?
**A.** Its value is 128 nM.

**Q.** With “CGUGCUAGGGCGGCCGCCACUGUGGCUACGGUACAUGAGGAUCACCCAUGUUUGUGGUUGAUCUACAGGACCGGGCCCUGGCACG [Radiaerdi]” as the sequence, how does the “apparent KD of MS2 coat protein” value read?
**A.** Its value is 442 nM.

**Q.** For “GCUUCACAUGAGGAUCACCCAUGUCCGGAUACCAGCUCUCCAGACAGCCCUUGGCAGCCGAGCGCCCGAUUAUAUACCCUAGGAG [theeternabot_sameState_MS2_Theo_A_28]”, which “apparent KD of MS2 coat protein” value is on record?
**A.** The value was 53.7 nM.

**Q.** “AAGCAGGGUGUAAAAUAAAUAAUCACUGAUACCAGACUAUGAGAUGUCCCUUGGCAGCAGAAACAUGAGGAUCACCCAUGUAAUA [JR_Nu_ExcTheophyA_Sub029]” was tested. Which “apparent KD of MS2 coat protein” value did it give?
**A.** Its value is 28.4 nM.

**Q.** “UGUCGUAGACAUGAGGAUCACCCAUGUCCACGAGGACCGGUACGGCCGCCACUCGGGAUAUAAACCGUUACGGGUGGGUGGUGUU [Maarlainin]” was tested. Which “apparent KD of MS2 coat protein” value did it give?
**A.** Its value is 26 nM.

**Q.** Which “apparent KD of MS2 coat protein” value does the source give for “AGAGUUAGACAAAAGUCUAGCUCACCAGAAGGAGCGUCCGAAAGGACAGGUAGGUCGCUGGUGCACGAGGAUCACCCGUGUUCCU [ArgAS 21 #OpenEnded #AlternativeMS2]” here?
**A.** Its value is 90.2 nM.

**Q.** With “GCAGUGGGUUAUAAGUAAUAGAAUUCUGAAGGAGCGUGAUGAAACACAGGUAGGUCGCAGGAACAUGAGGAUCACCCAUGUACGG [Same State Arginine A GF20]” as the sequence, how does the “apparent KD of MS2 coat protein” value read?
**A.** The value was 51.6 nM.

**Q.** Which “apparent KD of MS2 coat protein” value does the source give for “GCGCUAUUUAUUGAUACCAGAUACAGGAAUCACAUGAGGAUCACCCAUGUGGAAUGAAGGAUCCCUUGGCAGCAAUAGUCAAAAU [theeternabot_sameState_MS2_Theo_B_9]” here?
**A.** Its value is 19.6 nM.

**Q.** With “GGCACCAGGCGAAGGAGCGUGAAGACAUGAGGAUCACCCAUGUAGAGGCCCGGACAGGGUUCGCAGGUAGGUCGCGCCUGGUGCC [#1 Same State - Arginine B Attempt #9 (HarryS)]” as the sequence, how does the “apparent KD of MS2 coat protein” value read?
**A.** The value was 40.6 nM.

**Q.** For “ACGGAGAUUGCUAAAUGUUGGCGAGCGGAUACCAGCCUAUAAUCGGGCCCUUGGCAGCCGACAUGAGGAUCACCCAUGUAAACAA [Gelelaor]”, which “apparent KD of MS2 coat protein” value is on record?
**A.** Its value is 98.9 nM.

Same assay, conditions: Eterna round: R107; input ligand: theophylline 2 mM

**Q.** For “UUAAUCUUUAUUGAAAACAAUAAAGCAGAAGGAGCGUGAUAAAACACAGGUAGGUCGCUGAAGGGAACAUGAGGAUCACCCAUGU [AstrosSSArgA#13]”, which “apparent KD of MS2 coat protein” value is on record?
**A.** Its value is 35.1 nM.

**Q.** With “ACAUGAGGAUCACCCAUGUACAUAAGGGAAGGAGCGCGGUGAGACGCAGGUAGGUCGCCCAUAAUAACAAACAUUAAAUUCAUGU [#25 Same State - Arginine A]” as the sequence, how does the “apparent KD of MS2 coat protein” value read?
**A.** Its value is 21.3 nM.

**Q.** Which “apparent KD of MS2 coat protein” value does the source give for “UAUAUAUAUCACUAACUGUUCUUGAGGUCUCGAGGACCGGUACGGCCGCCACUCGUGCCGCCUCACAUGAGGAUCACCCAUGUCC [XTryp A #2]” here?
**A.** Its value is 81.6 nM.

**Q.** For “UCGUAGCUAGGAAGGAGCGCAUACUUCACAUGAGGAUCACCCAUGUCGAGACGUGAGUCAGUGCAGGUAGGUCGCCUAGCUAUGA [Same State - Arginine B (Freestyle 26)]”, which “apparent KD of MS2 coat protein” value is on record?
**A.** Its value is 21.5 nM.

**Q.** Which “apparent KD of MS2 coat protein” value does the source give for “GGACUAACCAGAAGGAGCGACACGCAGAAACUGCUAUUUCCUCCGCACGAGGAUCACCCGUGUCAGGUAGGUCGCUGGUUAGUCG [ArgBX 28]” here?
**A.** The value was 20.3 nM.

**Q.** With “GAUGAUAUUGCAGAUACCAGACACAUGAGGAUCACCCAUGUCGCUGGGUCGCUGGGUCGUGUCCCUUGGCAGCUGCGAUAUCAUC [Tibet]” as the sequence, how does the “apparent KD of MS2 coat protein” value read?
**A.** The value was 339 nM.

**Q.** With “AGCUCGCAUCCUCUAGCGUCAAAGACGCGUCGAGGACCGGUACGGCCGCCACUCGACUUGAGGAUCACCCAGGUCAAAGCGAGCA [TrypAX 13 #SwitchBubble #AlternativeMS2 #MS2Late #CuTurnoff]” as the sequence, how does the “apparent KD of MS2 coat protein” value read?
**A.** The value was 631 nM.

**Q.** With “GGCAGUCAUAGCAGGGCAAAUAUACUCGAAGGAGCGUCAUAGUAGGCAGGUAGGUCGCGAGACAUGAGGAUCACCCAUGUAGAGA [uuumullin]” as the sequence, how does the “apparent KD of MS2 coat protein” value read?
**A.** Its value is 66 nM.

**Q.** “ACAUGAGGAUCACCCAUGUACAUGAGGGAAGGAGCGGUACAUGUGCCAGGUAGGUCGCCCAACAGCAUCAGCCAUGUACAUCAGC [ppsmullin]” was tested. Which “apparent KD of MS2 coat protein” value did it give?
**A.** The value was 83.5 nM.

**Q.** “AGAGUCAGACAAAAGUCUGGCUCAGCCGAAGGAGCGUCCGAAAGGACAGGUAGGUCGCGGUUACCUGAGGAUCACCCAGGUUCCU [ArgAS 24 #OpenEnded #AlternativeMS2]” was tested. Which “apparent KD of MS2 coat protein” value did it give?
**A.** The value was 115 nM.

**Q.** Which “apparent KD of MS2 coat protein” value does the source give for “GCUGCCAUACGAAGGAGCGCUGGUGUAAUGAGGCGAACAUGAGGAUCACCCAUGUGGCAUAAGCAGGUAGGUCGCGUAUGGCAGC [EAB #16]” here?
**A.** The value was 20.8 nM.

**Q.** With “AAACAUGAGGAUCACCCAUGUAUACUUAGACGAGGACCGGUACGGCCGCCACUCGAACUUCAAGAUUUGGCGGAAAAUGUAUGUA [JR_ExcTryptoA_Sub022]” as the sequence, how does the “apparent KD of MS2 coat protein” value read?
**A.** The value was 12.1 nM.

**Q.** Which “apparent KD of MS2 coat protein” value does the source give for “AAACGUUGCUGCGAUACCAGACAUGAGGAUCACCCAUGUACCAAGGUAACCGAAAGGCAUGUCCCUUGGCAGCGCAGCAACGAAA [MAT - Exclusion Theophlline B - Mod of Eli - D17]” here?
**A.** Its value is 262 nM.

**Q.** With “GAGUAGUAGACGGCCGCCACUAAACAUGAGGAUCACCCAUGUAGUGAUCCGUUACCUAGCGUAGAUAGGACCGGGUCAGAUAGUA [Exclusion Tryptophan B GF 14]” as the sequence, how does the “apparent KD of MS2 coat protein” value read?
**A.** The value was 25.9 nM.

**Q.** With “GACGGUACGUCGGCAAAGCCGAUGUGCCAGCGAGGACCGGUACGGCCGCCACUCGUACAUGAGGAUCACCCAUGUCCGGUCCGUC [Omei Trp SS A C v3]” as the sequence, how does the “apparent KD of MS2 coat protein” value read?
**A.** Its value is 167 nM.

**Q.** “AAUAAUAGGUGAUCUUGAGUCGUACCGUAACGAGGACCGGUACGGCCGCCACUCGAACAUGAGGAUCACCCAUGUAUGUAUGAUA [whbob_SS_trypto A_f6]” was tested. Which “apparent KD of MS2 coat protein” value did it give?
**A.** The value was 276 nM.

**Q.** Which “apparent KD of MS2 coat protein” value does the source give for “CGUGCUAGGGCGGCCGCCACUGUGGCUACGGUACAUGAGGAUCACCCAUGUUUGUGGUUGAUCUACAGGACCGGGCCCUGGCACG [Radiaerdi]” here?
**A.** Its value is 756 nM.
